Assay results reported in patent US20190381086.

Target: Ubc12^N8 made with wild type Ubc12 (thioester-linked to NEDD8), purified, P61081
Sequence (P61081 whole entry, looked up): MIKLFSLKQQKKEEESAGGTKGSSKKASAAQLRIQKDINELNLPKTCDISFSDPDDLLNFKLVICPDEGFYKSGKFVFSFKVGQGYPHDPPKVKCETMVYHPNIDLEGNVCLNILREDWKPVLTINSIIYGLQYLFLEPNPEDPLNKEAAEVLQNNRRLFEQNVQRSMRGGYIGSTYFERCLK

B1: full-length human GlyRS (protein)
chain: MDGAGAEEVLAPLRLAVRQQGDLVRKLKEDKAPQVDVDKAVAELKARKRVLEAKELALQPKDDIVDRAKMEDTLKRRFFYDQAFAIYGGVSGLYDFGPVGCALKNNIIQTWRQHFIQEEQILEIDCTMLTPEPVLKTSGHVDKFADFMVKDVKNGECFRADHLLKAHLQKLMSDKKCSVEKKSEMESVLAQLDNYGQQELADLFVNYNVKSPITGNDLSPPVSFNLMFKTFIGPGGNMPGYLRPETAQGIFLNFKRLLEFNQGKLPFAAAQIGNSFRNEISPRSGLIRVREFTMAEIEHFVDPSEKDHPKFQNVADLHLYLYSAKAQVSGQSARKMRLGDAVEQGVINNTVLGYFIGRIYLYLTKVGISPDKLRFRQHMENEMAHYACDCWDAESKTSYGWIEIVGCADRSCYDLSCHARATKVPLVAEKPLKEPKTVNVVQFEPSKGAIGKAYKKDAKLVMEYLAICDECYITEMEMLLNEKGEFTIETEGKTFQLTKDMINVKRFQKTLYVEEVVPNVIEPSFGLGRIMYTVFEHTFHVREGDEQRTFFSFPAVVAPFKCSVLPLSQNQEFMPFVKELSEALTRHGVSHKVDDSSGSIGRRYARTDEIGVAFGVTIDFDTVNKTPHTATLRDRDSMRQIRAEISELPSIVQDLANGNITWADVEARYPLFEGQETGKKETIEE
- stability (half-life) of Ubc12^N8 in vitro at 37°, SDS-PAGE: In the presence of GlyRS, but not BSA, Ubc12^N8 was significantly more stable than in the absence of GlyRS
